Test results: paper PMC8071527, “Substrate Specificity of Chimeric Enzymes Formed by Interchange of the Catalytic and Specificity Domains of the 5′-Nucleotidase UshA and the 3′-Nucleotidase CpdB” (Molecules, 2021)

Legend:
Assay in all cases: phosphate release, colorimetric, saturation kinetics
Type in all cases: biochemical, Escherichia coli
Conditions in all cases: Mn2+; alkaline phosphatase as auxiliary enzyme
[1] = system: Nc1ncnc2c1ncn2[C@@H]1O[C@H](CO)[C@H]2OP(=O)(O)O[C@H]21
Excerpt: (§1) phosphate release, colorimetric, saturation kinetics on CpdB_Ndom–UshA_Cdom

[2] = system: O=[N+]([O-])c1ccc(OP(=O)(O)Oc2ccc([N+](=O)[O-])cc2)cc1
Excerpt: as §1

[3] = system: O=c1ccn([C@@H]2O[C@H](CO[P@@](=O)(O)O[P@@](=O)(O)O[C@H]3O[C@H](CO)[C@@H](O)[C@H](O)[C@H]3O)[C@@H](O)[C@H]2O)c(=O)[nH]1
Excerpt: as §1

[4] = system: C[N+](C)(C)CCOP(=O)(O)OP(=O)([O-])OC[C@H]1O[C@@H](n2ccc(N)nc2=O)[C@H](O)[C@@H]1O
Excerpt: as §1

[5] = system: Nc1ncnc2c1ncn2[C@@H]1O[C@H](CO)[C@H]2OP(=O)(O)O[C@H]21; remark: listed apart in the source
Excerpt: (§2) phosphate release, colorimetric, saturation kinetics on UshA_Ndom–CpdB_Cdom

[6] = system: O=[N+]([O-])c1ccc(OP(=O)(O)Oc2ccc([N+](=O)[O-])cc2)cc1; remark: listed apart in the source
Excerpt: as §2

[7] = system: O=c1ccn([C@@H]2O[C@H](CO[P@@](=O)(O)O[P@@](=O)(O)O[C@H]3O[C@H](CO)[C@@H](O)[C@H](O)[C@H]3O)[C@@H](O)[C@H]2O)c(=O)[nH]1; remark: listed apart in the source
Excerpt: as §2

[8] = system: C[N+](C)(C)CCOP(=O)(O)OP(=O)([O-])OC[C@H]1O[C@@H](n2ccc(N)nc2=O)[C@H](O)[C@@H]1O; remark: listed apart in the source
Excerpt: as §2

CpdB_Ndom–UshA_Cdom (Escherichia coli) gave a Km [1] of 370 ± 40 µM, a kcat [1] of 117 ± 24 s⁻¹ and a kcat/Km [1] of 320000 ± 80000 M⁻¹ s⁻¹. It also gave a Km [2] of 1400 ± 60 µM, a kcat [2] of 208 ± 77 s⁻¹ and a kcat/Km [2] of 150000 ± 55000 M⁻¹ s⁻¹. For the same substance, the Km [3] was 5900 ± 1900 µM, the kcat [3] was 0.2 ± 0.1 s⁻¹ and the kcat/Km [3] was 40 ± 8 M⁻¹ s⁻¹. It also gave a Km [4] of 3900 ± 600 µM, a kcat [4] of 11 ± 3 s⁻¹ and a kcat/Km [4] of 2700 ± 300 M⁻¹ s⁻¹.
With UshA_Ndom–CpdB_Cdom (Escherichia coli) the Km [5] was 1100 ± 350 µM, the kcat [5] was 3.6 ± 1 s⁻¹ and the kcat/Km [5] was 3400 ± 1300 M⁻¹ s⁻¹. The Km [6] was 670 ± 120 µM, the kcat [6] was 45 ± 3 s⁻¹ and the kcat/Km [6] was 68000 ± 13000 M⁻¹ s⁻¹. For the same substance, the Km [7] was 5000 ± 1700 µM, the kcat [7] was 0.1 ± 0.01 s⁻¹ and the kcat/Km [7] was 20 ± 10 M⁻¹ s⁻¹. For the same substance, the Km [8] was 1400 ± 400 µM, the kcat [8] was 0.3 ± 0.01 s⁻¹ and the kcat/Km [8] was 210 ± 60 M⁻¹ s⁻¹.
